This is an account of results in patent US20250136694A1 (HARBOUR BIOMED SHANGHAI, published 2025).

Assay [1] has as its target T1, human B7-H4 (protein in solution, BLI) (human, UniProt Q7Z7D3 25-258, limits assumed).
T1 sequence (looked up): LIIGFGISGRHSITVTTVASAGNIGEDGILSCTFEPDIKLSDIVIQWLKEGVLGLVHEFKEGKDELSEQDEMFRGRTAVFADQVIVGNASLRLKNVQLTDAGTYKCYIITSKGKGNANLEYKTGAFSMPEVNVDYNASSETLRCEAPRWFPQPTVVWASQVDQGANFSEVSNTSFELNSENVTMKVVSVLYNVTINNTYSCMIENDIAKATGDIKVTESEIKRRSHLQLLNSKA
In words: BLI (Octet), antibody captured on AHC sensor, antigen in solution. How it is done:
The binding kinetics between the antigen and the antibody was analyzed by the biolayer interferometry (BLI) technique using an Octet Red 96e molecular interaction analyzer (Fortebio).
When the affinity of the antigen for the antibody was determined, the rotation speed of the sensor was set at 1000 rpm/min. […] Finally, the AHC sensor was immersed in a 10 mM glycine-hydrochloric acid solution at pH 1.5 for regeneration to elute the proteins bound to the sensor.
When data analysis was performed using Octet Data Analysis software (Fortebio, version 11.0), 0 nM was taken as a reference well, and reference subtraction was performed; the “1:1 Global fitting” method was selected to fit the data, and the kinetics parameters of the binding of antigens to antigen-binding proteins were calculated, with kₒₙ(1/Ms) values, kdis(1/s) values, and KD(M) values obtained (see Table 3 and FIG. 2).
On the technique in general: Biolayer interferometry detects binding as a change in optical thickness at a sensor tip.

Assay [2] has as its target T2, human B7-H4 on the cell surface (human, UniProt Q7Z7D3 25-282).
T2 construct: whole, on cells; also called hu B7-H4; CHO-K1/huB7-H4
T2 sequence (looked up): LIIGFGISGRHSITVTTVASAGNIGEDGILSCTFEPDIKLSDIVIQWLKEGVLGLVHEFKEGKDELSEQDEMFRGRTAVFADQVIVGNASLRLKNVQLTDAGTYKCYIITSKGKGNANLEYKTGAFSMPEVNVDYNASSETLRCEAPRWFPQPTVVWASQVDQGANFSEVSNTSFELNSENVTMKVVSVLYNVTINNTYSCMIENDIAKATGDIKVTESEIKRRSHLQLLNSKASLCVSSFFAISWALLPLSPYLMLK
Kind of assay: FACS, CHO-K1/hu B7-H4 cells. How it is done:
(§1) This example is intended to investigate the in vitro binding activity of the CD3 bispecific antibodies of B7-H4 for human, cynomolgus monkey, and mouse B7-H4. Antibody binding experiments at the cellular level were conducted using a CHO-K1 cell strain overexpressing human B7-H4 (CHO-K1/huB7-H4, Harbour BioMed), a CHO-K1 cell strain overexpressing cynomolgus monkey B7-H4 (CHO-K1/cynoB7-H4, Harbour BioMed), and a CHO-K1 cell strain overexpressing mouse B7-H4 (CHO-K1/mB7-H4, Harbour BioMed). Briefly, cells were digested and resuspended in PBS containing 2% FBS, and the cell density was adjusted to 1×10⁶ cells/mL. The cells were seeded in a 96-well V-bottom plate (Corning, Cat #3894) at 100 μL/well, followed by the addition of test antibodies 3-fold serially diluted at a concentration that was 2 times the final concentration, each at 100 μL/well. The cells were incubated away from light at 4° C. for 2 h. Then, the cells in each well were rinsed twice with 100 μL of pre-cooled PBS and centrifuged at 500 g at 4° C. for 5 min, and then the supernatant was discarded. […] The cells in each well were then rinsed twice with 100 μL of pre-cooled PBS and centrifuged at 500 g at 4° C. for 5 min, and then the supernatant was discarded. Finally, the cells in each well were resuspended in 200 μL of pre-cooled PBS, and the fluorescence signal values were read using ACEA Novocyte3000.

The target of assay [3] is T2, human B7-H4 on the cell surface. In words: FACS, MDA-MB-468 cells. How it is done:
(§2) Antibody binding experiments at the cellular level were performed using tumor cells endogenously expressing B7-H4 or primary T cells expressing CD3. MDA-MB-468 cells or human T cells were resuspended in PBS containing 2% BSA. The cell density was adjusted to 1×10⁶ cells/mL. The cells were seeded in a 96-well V-bottom plate (Corning, #3894) at 100 μL/well, followed by the addition of test antibodies 3-fold serially diluted at a concentration that was 2 times the final concentration, each at 100 μL/well. The cells were incubated away from light at 4° C. for 2 h. Then, the cells in each well were rinsed twice with 100 μL of pre-cooled PBS containing 2% BSA and centrifuged at 500 g at 4° C. for 5 min, and then the supernatant was discarded. […] The cells in each well were rinsed twice with 100 μL of pre-cooled PBS containing 2% BSA and centrifuged at 500 g at 4° C. for 5 min, and then the supernatant was discarded. Finally, the cells in each well were resuspended with 200 μL of pre-cooled PBS containing 2% BSA, and the fluorescence signal values were read using an ACEA Novocyte3000 flow cytometer.
Background: A flow cytometer gives signals particle by particle.

The target of assay [4] is T3, cynomolgus monkey B7-H4 on the cell surface (cynomolgus monkey, UniProt A0A2K5U6P5 25-282).
T3 construct: whole, on cells; also called cyno B7-H4; CHO-K1/cynoB7-H4
T3 sequence: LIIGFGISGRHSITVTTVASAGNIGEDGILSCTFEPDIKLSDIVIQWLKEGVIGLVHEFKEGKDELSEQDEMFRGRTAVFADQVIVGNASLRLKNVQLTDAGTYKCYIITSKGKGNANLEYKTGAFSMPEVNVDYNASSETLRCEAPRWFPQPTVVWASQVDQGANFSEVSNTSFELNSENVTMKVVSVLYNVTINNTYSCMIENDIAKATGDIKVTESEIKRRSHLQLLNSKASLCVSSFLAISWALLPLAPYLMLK
In words: FACS, CHO-K1/cyno B7-H4 cells. The method, then: as §1

Assay [5] concerns the target T2, human B7-H4 on the cell surface. Kind of assay: FACS, MDA-MB-468 cells. How it is done:
as §2
The results are shown in Tables 6-1, 6-2, and 6-3 and FIGS. 5A-5F.
This is another data set of the same source.

Assay [6] has as its target T4, mouse B7-H4 on the cell surface (mouse, UniProt Q7TSP5 25-257).
T4 construct: whole, on cells; also called m B7-H4; CHO-K1/mB7-H4
T4 sequence (looked up): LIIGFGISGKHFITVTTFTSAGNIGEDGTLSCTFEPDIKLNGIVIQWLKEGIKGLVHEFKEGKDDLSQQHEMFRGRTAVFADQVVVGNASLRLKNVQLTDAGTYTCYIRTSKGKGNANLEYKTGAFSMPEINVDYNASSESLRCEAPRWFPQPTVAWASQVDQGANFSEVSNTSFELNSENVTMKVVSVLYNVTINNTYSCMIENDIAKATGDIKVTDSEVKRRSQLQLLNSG
Kind of assay: FACS, CHO-K1/m B7-H4 cells.

In assay [7] the target is T4, mouse B7-H4 on the cell surface. Kind of assay: FACS, CHO-K1/m B7-H4 cells. How it is done:
as §1
The source holds these as a separate data set.

B1: PR006391 (bispecific antibody, human IgG1, lambda)
light: QAVVTQEPSLTVSPGGTVTLTCRSSTGAVTTSNYANWVQQKPGQAPRGLIGGTNKRAPWTPARFSGSLLGDKAALTLLGAQPEDEAEYFCALWYSNLWVFGGGTKLTVLGQPKAAPSVTLFPPSSEELQANKATLVCLISDFYPGAVTVAWKADSSPVKAGVETTTPSKQSNNKYAASSYLSLTPEQWKSHRSYSCQVTHEGSTVEKTVAPTECS
heavy: EVQLVESGGGLVQPGGSLKLSCAASGFTFSTYAMNWVRQASGKGLEWVGRIRSKYNNYATYYADSVKDRFTISRDDSKNTAYLQMNSLKTEDTAVYYCTRHGNFGNSYVSWFAYWGQGTLVTVSSASTKGPSVFPLAPSSKSTSGGTAALGCLVKDYFPEPVTVSWNSGALTSGVHTFPAVLQSSGLYSLSSVVTVPSSSLGTQTYICNVNHKPSNTKVDKKVEPKSCDKTHTCPPCPAPEAAGAPSVFLFPPKPKDTLMISRTPEVTCVVVDVSHEDPEVKFNWYVDGVEVHNAKTKPREEQYNSTYRVVSVLTVLHQDWLNGKEYKCKVSNKALPAPIEKTISKAKGQPREPQVYTLPPCREEMTKNQVSLWCLVKGFYPSDIAVEWESNGQPENNYKTTPPVLDSDGSFFLYSKLTVDKSRWQQGNVFSCSVMHEALHNHYTQKSLSLSPGK
chain: EVQLVESGGGLVQPGGSLRLSCAASGFAFSNYWMHWARQVPGKGRVWISRISGDSRSTSYADSVKGRFTISRDNAKNMVYLQMNNLRAEDTAVYYCARDRFGDDYYYGMNVWGQGTTVTVSSGGGGSGGGGSGGGGSEVQLVESGGGLVQPGGSLRLSCAASGFAFSNYWMHWARQVPGKGRVWISRISGDSRSTSYADSVKGRFTISRDNAKNMVYLQMNNLRAEDTAVYYCARDRFGDDYYYGMNVWGQGTTVTVSSASEPKSSDKTHTCPPCPAPEAAGAPSVFLFPPKPKDTLMISRTPEVTCVVVDVSHEDPEVKFNWYVDGVEVHNAKTKPREEQYNSTYRVVSVLTVLHQDWLNGKEYKCKVSNKALPAPIEKTISKAKGQPREPQVCTLPPSREEMTKNQVSLSCAVKGFYPSDIAVEWESNGQPENNYKTTPPVLDSDGSFFLVSKLTVDKSRWQQGNVFSCSVMHEALHNHYTQKSLSLSPGK
notes: also called B7-H4xCD3 bispecific antibody; PR003886 Fab + bivalent PR007440
The term Kd denotes the free concentration of one partner at which half of the binding sites on the other are occupied at equilibrium, for simple one-to-one binding. For orientation: koff means the rate constant with which the complex falls apart. Broadly, the kon is a measure of how fast the partners come together. In general, EC50 refers to the concentration at which the effect is half-maximal. Consider B1, for which, in assay [1], the dissociation constant (Kd) came out at 3.75 nM. The molecule further registered a koff in assay [1] of 0.000339 s⁻¹. The kon in assay [1] was determined as 90400 M⁻¹ s⁻¹. For the same molecule, the EC50 in assay [2] came out at 3.54 nM; in assay [3] it was 15.8 nM; in assay [4] it was 3.79 nM; in assay [5], 19.1 nM. Also, the binding result in assay [6] is given as “no binding”.

B2: PR005885 (bispecific antibody, human IgG1, lambda)
light: QAVVTQEPSLTVSPGGTVTLTCRSSTGAVTTSNYANWVQQKPGQAPRGLIGGTNKRAPWTPARFSGSLLGDKAALTLLGAQPEDEAEYFCALWYSNLWVFGGGTKLTVLGQPKAAPSVTLFPPSSEELQANKATLVCLISDFYPGAVTVAWKADSSPVKAGVETTTPSKQSNNKYAASSYLSLTPEQWKSHRSYSCQVTHEGSTVEKTVAPTECS
heavy: EVQLVESGGGLVQPGGSLKLSCAASGFTFSTYAMNWVRQASGKGLEWVGRIRSKYNNYATYYADSVKDRFTISRDDSKNTAYLQMNSLKTEDTAVYYCTRHGNFGNSYVSWFAYWGQGTLVTVSSASTKGPSVFPLAPSSKSTSGGTAALGCLVKDYFPEPVTVSWNSGALTSGVHTFPAVLQSSGLYSLSSVVTVPSSSLGTQTYICNVNHKPSNTKVDKKVEPKSCDKTHTCPPCPAPEAAGAPSVFLFPPKPKDTLMISRTPEVTCVVVDVSHEDPEVKFNWYVDGVEVHNAKTKPREEQYNSTYRVVSVLTVLHQDWLNGKEYKCKVSNKALPAPIEKTISKAKGQPREPQVYTLPPCREEMTKNQVSLWCLVKGFYPSDIAVEWESNGQPENNYKTTPPVLDSDGSFFLYSKLTVDKSRWQQGNVFSCSVMHEALHNHYTQKSLSLSPGK
scFv: EIVMTQSPASLSVSPGERATLSCRASQSVSSNLAWYQQKPGQAPRLLIYGASTRATGIPARVSGGGSGTEFTLTISSLQSEDFAVYYCQQYKNWPFTFGPGTKLEIKGGGGSGGGGSGGGGSGGGGSQVQLVQSGAEVKKPGSSMRVSCKASEDTFSSYAISWVRQAPGQGLEWMGGTAPIFGTTNYAQKFQGRVTITADKSTSTAYMELSSLRSEDTAVYYCARGGPYFDYWGQGTLVTVSSASEPKSSDKTHTCPPCPAPEAAGAPSVFLFPPKPKDTLMISRTPEVTCVVVDVSHEDPEVKFNWYVDGVEVHNAKTKPREEQYNSTYRVVSVLTVLHQDWLNGKEYKCKVSNKALPAPIEKTISKAKGQPREPQVCTLPPSREEMTKNQVSLSCAVKGFYPSDIAVEWESNGQPENNYKTTPPVLDSDGSFFLVSKLTVDKSRWQQGNVFSCSVMHEALHNHYTQKSLSLSPGK
notes: Chain-3 is the VL-linker-VH scFv of anti-B7-H4 antibody PR003366 fused to hinge-CH2-CH3 (hole); also called B7-H4xCD3 bispecific antibody; 1+1 Fab-Fc-scFv
With B2, the half-maximal effective concentration (EC50) turned out to be 37 nM in assay [7], 4.79 nM in assay [2], 92.6 nM in assay [3] and 5.92 nM in assay [4].
